# Reference: patent publication US12472269B2, “Liver-specific inducible promoters and methods of use thereof” (ASKBIO INC., priority 2019, dated 2025)
# Columns and labels:
# AXOL ARE hepatocytes = assay: Luciferase expression from pAAV constructs in AXOL ARE hepatocytes without CITCO, with CITCO and after CITCO withdrawal; assay type: cell-based, human; details: pAAV vector
# Description: Luciferase expression from the PB1-MinTK and PB1-2-MinTK constructs in the pAAV vector in AXOL ARE hepatocytes is inducible by CITCO (1 μM) but reduces after removing CITCO as shown in FIG. 5.
# CD1 male mice = assay: In vivo bioluminescence imaging of mice injected with AAV9 constructs, induction by phenobarbital
# Description: • Seed HEK 293-AAV cells in 15 cm plates. To be 70-80% confluent on the day of transfection • Final volume on each plate: 15 ml Day 2: Prepare Transfection Mix: • DNA mix/plate: pDG9 (Packaging plasmid for AAV9): 10.5 μg/pHGTI (Ad. Helper plasmid): 31.5 μg/Vector plasmid: 10.5 μg/Prepare in serum free DMEM/Optimem • Transfer mix/plate: PEI: 125 μl/Prepare in serum free DMEM/Optimem • Add DNA mix into transfection mix. Mix and leave at room temperature for 15-20 mins. • Add 3 ml of transfection mix to each plate drop-wise and gently distribute. Incubate for 24 h. Day 3: • Replace media with 15 ml DMEM supplemented with P/S and 2% FCS. Leave for 48 h. Day 5: • Collect supernatant and pool in 50 ml tubes, 25 ml each tube. Store at −20° C. • Collect cells: Add 5 ml of PBS to each plate→scrape and collect in 50 ml tubes. • To wash plates, add another 1 ml of PBS and collect. • Spin at 1500 rpm for 5 mins. • Remove supernatant and resuspend pelleted cells in 1 ml/plate TD lysis buffer→pool • Store at −80′C. Endonuclease Treatment Cells: • Freeze and thaw pellets 5 times→˜20 mins at 37° C. then ˜20 mins in dry ice (or −80° C.). • Add 25 μl/ml cells of 20% Deoxycholate (or 50 μl/ml of 10% Deoxycholate). • Add 8 μl/ml cells of benzonase. • Incubate at 37° C. for 30 mins. • Spin at 4 Krpm for 30 mins. • Filter supernatant using […] filters. • Store at 4° C. for up to 24 h. Supernatant: • Add 2.5 μl/25 ml supernatant of benzonase. • Add 50 μl/25 ml supernatant of MgSO4. • Incubate at 37° C. for 30 mins. • Spin at 4 Krpm for 30 mins. • Filter supernatant using […] filters. • Store at 4′C for up to 24 h. Hplc Purification • Place both lines in 20% ETOH→template→system wash • Put line A in PBS and line B in Glycine→template→system wash • Place the column in the machine→manual run→flowrate: 5 ml/min→Run for 25 ml or until the UV line is flat. • Prepare FACS tubes (10 for cells and more for supernatant): add 30 μl/tube Tris→put in the machine to collect vectors. • Place the waste lines in a separate tube to be able to run them again through the column. • Run samples (flowrate low, depending on how fast the system and how concentrated the sample is; for cells it is slower, for supernatant it is higher). • After running the waste through the column, wash with PBS→flowrate: 5 ml/min until the UV line is flat. • Set→fraction size: 1 ml; Flowrate: 1 ml/min; concentration % B: 100%→run. • Start collecting: Look for the peak. The peak indicates vector purification. Mark the tubes containing these vectors. • Save programme before exiting. • Wash with PBS→75 ml, 5 ml/min • Wash with Na3PO4 (to store the column in)→75 ml, 5 ml/min • Remove column and store at 4° C. • Wash the machine with PBS→template→system wash • Wash the machine with 20% ETOH→template→system wash • Put both lines in 20% ETOH and shut down • Add 2 L of PBS into a big bucket and put the Dialysis cassette (Side-A-Lyzer; Thermo scientific) to prime. • Collect the vectors from the marked FACS tubes using a syringe and needle and add into the dialysis cassette→remove excess air from the membrane, carefully place the rubber on top of the cassette and let it float in the PBS-containing bucket→leave over night at room temperature on a slow rotating rotor. Next Day: • Prime membrane by adding 5 ml PBS onto a centrifugal filter (Amico Ultra 15; MERCK)→spin for 5 mins at 4 Krpm • Remove excess PBS from inside the membrane. • Take vectors out from the cassette and load onto the membrane→spin for 5 mins at 4 Krpm • Wash the membrane with the vectors inside few times, then collect into 2 ml centrifuge tube filter 0.22 μM (Spin-X; COSTAR) • Spin for 3 mins at 13 Krpm. • Remove filter and aliquot: 1×100 μl (for injection), the rest in 10-2 μl aliquots. • Store in −80° C. • Virus quantification was performed using qRT-PCR with primers and probes for the luciferase gene. Mice Experiment […]
# AXOL ARE-hepatocytes = assay: Luciferase expression from PBREM promoters in AXOL ARE-hepatocytes, induction by CITCO; assay type: cell-based, human; details: induction with CITCO, mean of 3 biological replicates
# Text: Axol Assay-Ready Expanded (ARE) Hepatocytes are primary human hepatocytes that have been expanded in vitro. Large batch sizes (up to 2000 vials) are available, ensuring a reliable, ready-to-use and consistent source of primary hepatocytes. ARE Hepatocytes express CYP enzymes, are metabolically functional, are polarized and can be infected by the Hepatitis C virus. AXOL ARE-hepatocytes express CAR negating the need to transfect with a CAR-expressing plasmid.
# • AXOL assay-ready expanded (ARE) hepatocytes (Axol, ax3701) • ARE hepatocyte thawing medium (Axol, ax3705) • ARE maintenance medium (Axol, ax3710) • Virimer red transfection reagent (Lipocalyx, VR04-02-15) • CITCO, lucifierase, β-galactosidase and BCA kits as described above
# ARE hepatocytes were cultured and transfected as described in the manufacturer's manual. 200,000 cells were seeded in 2 ml culture medium in collagen-coated 6 well plate. The cells were incubated for 4 h at 37° C. and 5% CO2 for sufficient adhesion. 200 μl of transfection mixture containing the DNA to be transfected (PB1-MinTK/PB1-CMV/PB1-SV40 operably linked with luciferase and β-galactosidase containing promoter) was added and the cells were incubated on an orbital shaker at 100 rpm for three hours at 37° C. and 5% CO2. 3 hrs after transfection CITCO was added to the appropriate wells. Cells were incubated under static conditions at 37° C. and 5% CO2 overnight and in the morning the medium was replaced with fresh ARE Hepatocyte Maintenance Medium. Readout was 24 hrs after induction. […]
# [1] = tested on: Huh7 and ARE primary cells; assay: Effect of AAV ITRs: pAAV constructs transfected into Huh7 and ARE primary cells, compared with pGL4.10; assay type: cell-based, human; details: mean of 3 biological replicates
# Text: Following from Example 3, it was decided to take PB1-MinTK and PB1-2-MinTk forward for in vivo studies. To facilitate this the two aforementioned constructs were cloned into pAAV vector (Takara, Clontech) to allow for the preparation of AAV viruses. The inserts where cloned using restriction digest of the pAAV plasmid and PCR amplification of the original pGL4.10 constructs.
# We investigated the effect of the Inverted Terminal Repeats (ITRs) on the activity of the promoters. This was done as we have observed interference from the AAV ITRs in other projects. To this end, the pAAV-PB1-MinTk and pAAV-PB1-2-MinTk were transfected into Huh7 and ARE primary cells as previously described and their activity assessed.
# [2] = AAV9, phenobarbital intraperitoneally
molecule,measurement,setting,value
"PB1-2-MinTK: promoter: 3×PBREM and min-TK promoter, SEQ ID NO: 11 (nucleic acid, PB1-2-MinTk (3xPBREM)) DNA: TCTGTACTTTCCTGACCTTGGCACAGTGCCACCATCAACTTGCCTGACACCCATTACTCGCATCCATTCTCTCTGTACTTTCCTGACCTTGGCACAGTGCCACCATCAACTTGCCTGACACCGCACTGAAGGTCCTCAATCGTCTGTACTTTCCTGACCTTGGCACAGTGCCACCATCAACTTGCCTGACACCGCTGGGAGTTCGTAGACGGAGATCCGGCCCCGCCCAGCGTCTTGTCATTGGCGAATTCGAACACGCAGATGCAGTCGGGGCGGCGCGGTCCGAGGTCCACTTCGCATATTAAGGTGACGCGTGTGGCCTCGAACACCGAGCGACCCTGCAGCGACCCGCTTAACAGCGTCAACAGCGTGCCGCAGATCTCGAGGAGCTTGGCGAGATTTTCAGGAGCTAAGGAAGCTAAAC",luciferase expression with CITCO,AXOL ARE hepatocytes; CITCO (1 μM),inducible
same,activity of the promoter after removal of CITCO,AXOL ARE hepatocytes; CITCO withdrawal,almost baseline levels
same,luciferase expression before induction,CD1 male mice; 0 hrs,no expression of the luciferase gene
same,time at which induction is complete,CD1 male mice; [2],48 h
same,time of maximal activity after induction,CD1 male mice; [2],24 h
same,tissue distribution of luciferase expression,CD1 male mice; AAV9 via tail vein,confined to the liver
same,induced luciferase expression as a ratio to CMV-IE,AXOL ARE-hepatocytes,4.1
same,induction of luciferase expression across pGL4.10 and pAAV vectors and cell types,[1],comparable across vectors and cell types
